Measurements reported in paper PMC6021441, “Structural basis of the correct subunit assembly, aggregation, and intracellular degradation of nylon hydrolase” (Scientific Reports, 2018).

Experiments:
Test in all cases: crystal structure; sitting-drop vapor diffusion, ammonium sulfate, 0.1 M HEPES pH 7.5, 0.2 M NaCl, 25% glycerol; space group C222_(1), two molecules (A/B dimer) in the asymmetric unit, tetramer by the crystallographic two-fold axis
Conditions in all cases: both partners purified
[1] = target: T1, NylCp2-K^122 alpha subunit (D122K) (Arthrobacter, UniProt Q79F77 1-266, D122K)
T1 construct: NylCp2 alpha subunit with D122K; also called α subunit of NylCp2-K^122; source: E. coli JM109, purified with the beta subunit as the active enzyme
T1 sequence (looked up): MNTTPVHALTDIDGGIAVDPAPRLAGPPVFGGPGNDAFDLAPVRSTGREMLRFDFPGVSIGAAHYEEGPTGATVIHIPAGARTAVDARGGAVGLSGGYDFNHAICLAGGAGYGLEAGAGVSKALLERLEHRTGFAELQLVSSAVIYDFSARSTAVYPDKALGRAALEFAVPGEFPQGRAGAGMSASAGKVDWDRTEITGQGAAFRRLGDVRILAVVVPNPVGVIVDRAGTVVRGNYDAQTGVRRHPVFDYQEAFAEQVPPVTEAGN

[2] = target: T2, NylCp2-Y^130 alpha subunit (H130Y) (Arthrobacter, UniProt Q79F77 1-266, H130Y)
T2 construct: NylCp2 alpha subunit with H130Y; also called α subunit of NylCp2-Y^130; source: E. coli JM109, purified with the beta subunit as the active enzyme
T2 sequence (looked up): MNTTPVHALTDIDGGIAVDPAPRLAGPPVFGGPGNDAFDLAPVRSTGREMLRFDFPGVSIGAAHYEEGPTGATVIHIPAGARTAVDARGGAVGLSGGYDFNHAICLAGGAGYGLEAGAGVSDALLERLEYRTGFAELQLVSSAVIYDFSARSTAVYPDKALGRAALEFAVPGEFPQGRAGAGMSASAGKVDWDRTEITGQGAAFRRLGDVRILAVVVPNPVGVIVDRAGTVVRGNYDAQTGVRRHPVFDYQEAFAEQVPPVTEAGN

[3] = target: T3, NylCp2-G^122 alpha subunit (D122G) (Arthrobacter, UniProt Q79F77 1-266, D122G)
T3 construct: NylCp2 alpha subunit with D122G; also called α subunit of NylCp2-G^122; source: E. coli JM109, purified with the beta subunit as the active enzyme
T3 sequence (looked up): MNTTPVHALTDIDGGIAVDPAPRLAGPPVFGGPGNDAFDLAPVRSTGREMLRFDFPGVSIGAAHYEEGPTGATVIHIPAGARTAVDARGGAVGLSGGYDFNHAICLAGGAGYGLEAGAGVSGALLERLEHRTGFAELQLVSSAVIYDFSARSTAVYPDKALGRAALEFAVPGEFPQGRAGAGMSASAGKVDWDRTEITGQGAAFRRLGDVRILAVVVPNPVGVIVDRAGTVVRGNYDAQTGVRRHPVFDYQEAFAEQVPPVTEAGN

[4] = target: T4, NylCp2-V^122 alpha subunit (D122V) (Arthrobacter, UniProt Q79F77 1-266, D122V)
T4 construct: NylCp2 alpha subunit with D122V; also called α subunit of NylCp2-V^122; source: E. coli JM109, purified with the beta subunit as the active enzyme
T4 sequence (looked up): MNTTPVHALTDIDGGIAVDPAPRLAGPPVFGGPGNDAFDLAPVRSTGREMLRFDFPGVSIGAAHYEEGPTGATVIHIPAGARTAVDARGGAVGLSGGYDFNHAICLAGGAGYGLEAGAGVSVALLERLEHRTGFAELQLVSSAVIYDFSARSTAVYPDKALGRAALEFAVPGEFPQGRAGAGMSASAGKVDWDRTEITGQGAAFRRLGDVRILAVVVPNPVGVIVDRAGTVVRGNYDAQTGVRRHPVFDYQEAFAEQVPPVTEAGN

[5] = target: T5, NylCp2-G^122Y^130A^36Q^263 alpha subunit (D122G/H130Y/D36A/E263Q) (Arthrobacter, UniProt Q79F77 1-266, D122G | H130Y | D36A | E263Q)
T5 construct: NylCp2 alpha subunit with four substitutions; also called α subunit of NylCp2-G^122Y^130A^36Q^263; source: E. coli JM109, purified with the beta subunit as the active enzyme
T5 sequence (looked up): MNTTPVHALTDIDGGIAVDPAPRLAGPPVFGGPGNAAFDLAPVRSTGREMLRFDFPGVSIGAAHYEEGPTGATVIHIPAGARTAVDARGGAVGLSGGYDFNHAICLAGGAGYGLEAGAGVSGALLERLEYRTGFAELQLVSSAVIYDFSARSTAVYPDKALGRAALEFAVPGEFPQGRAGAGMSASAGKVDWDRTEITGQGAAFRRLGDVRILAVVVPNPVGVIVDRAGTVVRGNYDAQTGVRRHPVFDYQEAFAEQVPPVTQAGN

[6] = target: T6, NylCp2-R^122 alpha subunit (D122R) (Arthrobacter, UniProt Q79F77 1-266, D122R)
T6 construct: NylCp2 alpha subunit with D122R; also called α subunit of NylCp2-R^122; source: E. coli JM109, purified with the beta subunit as the active enzyme
T6 sequence (looked up): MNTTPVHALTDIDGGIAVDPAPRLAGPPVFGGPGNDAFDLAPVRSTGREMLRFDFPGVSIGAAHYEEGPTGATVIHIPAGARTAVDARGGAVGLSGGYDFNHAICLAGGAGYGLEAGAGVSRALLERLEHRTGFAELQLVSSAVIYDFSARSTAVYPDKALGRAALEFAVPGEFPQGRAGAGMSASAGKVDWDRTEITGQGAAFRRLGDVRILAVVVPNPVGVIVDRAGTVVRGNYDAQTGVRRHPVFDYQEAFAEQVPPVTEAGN

binding result [1]: binds
binding result [2]: binds
binding result [3]: binds
binding result [4]: binds
binding result [5]: binds
binding result [6]: binds
B1: NylCp2 beta subunit (9 kDa) (domain or fragment, Arthrobacter, UniProt Q79F77 267-355, looked up)
chain: TTISAIVTNVRMSPVELNQFAKQVHSSMHRGIQPFHTDMDGDTLFAVTTDEIDLPTTPGSSRGRLSVNATALGAIASEVMWDAVLEAGK
notes: NylCp2, beta subunit made by autocleavage of the 355-residue precursor between Asn266 and Thr267; the same in the wild type and in the mutants crystallised here (all their substitutions lie in the alpha subunit); also called β subunit; source: E. coli JM109, purified with the alpha subunit as the active enzyme
